System: MS2 coat protein
Test: apparent KD of MS2 coat protein; designed switch direction (-1 OFF switch, 1 ON switch): 1; higher = weaker reporter binding
Outline: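 Three titration conditions were used: no input, 200 uM small-molecule ligand, and an oligonucleotide input. In each, SNAP-549-labelled MS2 coat protein was raised from 0.7 or 1.5 nM, doubling, to 3 µM over designed RNA switches transcribed on Illumina chips by stalled E. coli RNA polymerase. Curve fits of normalised cluster fluorescence gave values whose per-design median over clusters is the apparent KD.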

[1] = input ligand: microRNA oligo, concentration not stated
[2] = Eterna round: R95, input ligand: FMN 200 uM
[3] = Eterna round: R95, input ligand: microRNA oligo, concentration not stated
[4] = Eterna round: R95, input ligand: none

| Sequence | apparent KD of MS2 coat protein (input ligand: FMN 200 uM) | apparent KD of MS2 coat protein [1] | apparent KD of MS2 coat protein (input ligand: none) | apparent KD of MS2 coat protein [2] | apparent KD of MS2 coat protein [3] | apparent KD of MS2 coat protein [4] |
| --- | --- | --- | --- | --- | --- | --- |
| ACAUGAGACCAAGGAUAUCUUGUACCUACAUGUGACAUGAGGAUCACCCAUGUGGUAAGUAUGAGGGAGAAGGUGGAGAUAUGU [Equivalence 25 - Jieux - Same State NG 2] (Eterna round: R96, puzzle: Same State NG 2) | 26.2 nM | 18.8 nM | 36.7 nM |  |  |  |
| ACAUGAGACCAAGGAUAUGUUGUACCUACAUGUGACAUGAGGAUCACCCAUGUGGUAAGUAUGAGGCAGAAGGUGGAGAUAUGU [Equivalence 26 - Jieux - Same State NG 2] (Eterna round: R96, puzzle: Same State NG 2) | 26.5 nM | 44.2 nM | 59.3 nM |  |  |  |
| ACAUGAGACUUAGGAUAUGUUGUACCUACAUGUGACAUGAGGAUCACCCAUGUGGUAAGUAUGACACAGAAGGAAGAGAUAUGU [Equivalance 67 - Jieux - Same State NG 2] (Eterna round: R96, puzzle: Same State NG 2) |  | 18.9 nM |  |  |  |  |
| ACAUGAGAGAUAGGAUAUCGUGUACCUACAUGUGACAUGAGGAUCACCCAUGUGGUAAGUAUGAGCGAGAAGGAUCCGAUAUGU [salish99_SSNG2_r04_1001] (Eterna round: R96, puzzle: Same State NG 2) | 18.6 nM | 38.6 nM | 66.4 nM |  |  |  |
| ACAUGAGAGGGAGGAUAUUUUGUACCUACAUGUGACAUGAGGAUCACCCAUGUGGUAAGUAUGAGAAAGAAGGCCCAGAUAUGU [Equivalence 18 - Jieux - Same State NG 2] (Eterna round: R96, puzzle: Same State NG 2) | 17.4 nM | 18.9 nM | 27.4 nM |  |  |  |
| ACAUGAGGAUCACCCAUGUAGGCUCAGGAAACUGUGCCACAUGAGGAUAUGGAUCCUAAUUGGAUCCAGAAGGCAUGUAUUAUU [Fiskers NG3ss - 22] (Eterna round: R96, puzzle: Same State NG 3) | 112 nM | 41.6 nM | 66.1 nM |  |  |  |
| ACCCAAAGUAUAUGGGAACAGGCUUUUUAACAUGAGGAUCACCCAUGUACUCGUCUUAUAAGCAGUCGAAAGACUGC [Sensor 100 - 2] (puzzle: Sensor for hsa-mir-208a) |  |  |  | 487 nM | 18 nM | 906 nM |
| ACGCUCCAUGGAGGAUAUGGGCCUGCCCGGGAUACCGGGCCUAACACAUGAGGAUCACCCAUGUCCCAGAAGGCCGCUGGAGCC [Atgeenbite] (Eterna round: R96, puzzle: Same State NG 2) | 19.2 nM | 62.3 nM | 98.7 nM |  |  |  |
| ACGUGGAUAUCACAGGAUAUACUCACAACUACAUGAGGAUCACCCAUGUAGCGGUAUUCCGGUGCGUAGAAGGGUGAUGGACCAC [Same State 2 - Mod of Artece v.3] (puzzle: Same State 2) |  |  |  | 12.1 nM | 12 nM | 11.4 nM |
| ACUCAGUACAAUUUAGAUCUACAUGAGGAUCACCCAUGUACUGAGGAUAUCAGCUCGAUUAGAGCUGAGAAGGCAGUUGUACUA [SSNG3/10-A2] (Eterna round: R96, puzzle: Same State NG 3) | 82.3 nM | 161 nM | 125 nM |  |  |  |
| AGAAAACAUGAGGAUCACCCAUGUAGAAAUAUGGGAGGAUAUACAAAGACGAAAGUCAAGGUAGAAGGCCUAAAGA [Mat - Same State 1 - Meechl mod - D124] (Eterna round: R96, puzzle: Same State 1) | 19.6 nM | 70.4 nM | 98.7 nM |  |  |  |
| AGAAGACAUGAGGAUCACCCAUGUAUGAAAAGUACAGGAUAUCAUGAGCUAAGGUGCGCAUGAGAAGGGUGAAAAU [Aatle] (puzzle: Same State 1) |  |  |  | 549 nM | 166 nM | 70.3 nM |
| AGACAUGAGGAUCACCCAUGUAUACACUAUAUCAGUGUAACAUAGGAUAUCCACCGCCAUGCUGUGGAGAAGGAUGAAACGGGC [Raerlaan] (Eterna round: R96, puzzle: Same State NG 3) | 211 nM | 65.9 nM | 108 nM |  |  |  |
| AGAGAACAUGAGGAUCACCCAUGUAAGAGAAGUGUAGGAUAUGUGAGGAGCAGAGGAGGAACAGAAGGACAUGGAG [JR_SS!_Sub072] (puzzle: Same State 1) |  |  |  | 34.6 nM | 35.3 nM | 53.8 nM |
| AGAGCCGGCACUGAGGAUAUUCAUAUUAAAACAUGAGGAUCACCCAUGUAGGCCAGAAGGCCUUGGGAGAAGGCAGGUCGGCUCU [Mat - Same State 2 - Mod of UCT - D61] (Eterna round: R96, puzzle: Same State 2) | 18.7 nM | 201 nM | 366 nM |  |  |  |
| AGAGCCGGCACUGAGGAUAUUCAUAUUAAAACAUGAGGAUCACCCAUGUAGGCCAGAAGGCCUUGGGAGAAGGCAGGUCGGCUCU [Mat - Same State 2 - Mod of UCT - D61] (puzzle: Same State 2) |  |  |  | 22.3 nM | 211 nM | 507 nM |
| AGAUCAUGACGAGGAUAUGGUACAUGAGGAUCACCCAUGUAUGUACCAUAACGCGUACGACGAAACCAGAAGGCGUCGUGGUCA [JL SSNG2 1.08] (Eterna round: R96, puzzle: Same State NG 2) | 11.7 nM | 14.8 nM | 27 nM |  |  |  |
| AGAUGUUAAUUAGGAUAUGGACACAUGAGGAUCACCCAUGUAACGAAGAUACGAUGUGGUCAAGUCUAGAAGGGAUAGCUAACA [SameState NG2 #75] (Eterna round: R96, puzzle: Same State NG 2) | 39.9 nM | 27.3 nM | 39 nM |  |  |  |
| AGAUGUUAAUUAGGAUAUGGGCACAUGAGGAUCACCCAUGUAUUUUCGAUGCUAUGUGGAGACGUCUAGAAGGGAUGGCUAACA [SameState NG2 #87] (Eterna round: R96, puzzle: Same State NG 2) | 198 nM | 137 nM | 142 nM |  |  |  |
| AGCACGGGAUUGGAGGAUAUGUUGUUUGCAACAUGAGGAUCACCCAUGUCUGAGGCUGAAAAGCAGCAGAAGGCCGAUACAACCA [SS2-1.2] (Eterna round: R96, puzzle: Same State 2) | 60.1 nM | 154 nM | 198 nM |  |  |  |
| AGCGAACAUGAGGAUCACCCAUGUAGACCGCGUGUGAUAACACAGGAUAUCAAAGGAAGAAGGAGUGAGAAGGGUGGGAAGGAG [Default title] (Eterna round: R96, puzzle: Same State NG 3) | 93.6 nM | 53.7 nM | 75.1 nM |  |  |  |
| AGCUAGUACCGAGGAUAUACAUACAUGAGGAUCACCCAUGUAUACAUGAAUAAAUGAGACUACAUGUAGAAGGCGGUACUAGCA [Mat - Same State NG 2 - JL mod - D47] (Eterna round: R96, puzzle: Same State NG 2) |  | 48.8 nM |  |  |  |  |
